B1: TPR t1 (parent)
chain: GACCAAUCUGCCCUCAGAGCUCGAGAACAUCUUCGGAUGCAGAGGAGGCAGGCUUCGGUGGCGCGAUAGCGCCAACGUCCUCAACCUCCAAUGCAUCCCACCACAUGAUGAUGCCUGAAGAGCCUUGGUUUUUUG

In this data set the parent is B1. Nature of the data set: polymerase ribozyme fitness, log enrichment relative to wild type (log ratio); higher = more active; in vitro selection for triplet polymerase activity. In a few lines: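 After PCR construction and transcription, each subunit's mutant library from a heterodimeric triplet polymerase ribozyme was annealed with a biotinylated primer, the partner subunit and triplets. Incubation was frozen, at −7 °C, and extended constructs were gel-excised, bound to streptavidin beads and amplified by RT-PCR, in one selection round done in triplicate. Fitness is the logarithm of a genotype's enrichment divided by that of the wild type, from inverse-variance-weighted replicate averages of Illumina-sequenced inputs and outputs. The base of the logarithm is 2, and genotypes needed ≥10 input reads and ≥1 read per output.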
In the case of GACCAAUCUGCCCUCAGAGCUCGAGAACAUCUUCGGAUGCAGACGAGGCAGGCAUCGGUGGCGCGAUAGCGCCAACGUCCUCAACCUCCAAUGCAUCCCACCACGUGAUGAUGCCUUAAGAGCCUUGGAUUUAUG [G44C U54A A105G G117U U129A U133A], the “polymerase ribozyme fitness (log ratio)” value is -7.26. The value for GACCAAUCUGCCCUCAGAGCUCGAGAACAUCUUCGGAUGGAGAGGAGGCAGGCUUCGGUGGCGCGAUAGCGCCAACGUCCUCAACCUCCAAUGCAUCCCACCACAUGAUGAUGCCUGAAUAGCCUUGGUUUUUUG [C40G G120U] was -0.437; that for GACCAAUCUACCCUCAGAGCUCGAGAACAUCUUCGGAUUCAGAGGAGGCAAGCUUCGGUGGCGCGAUAGUGCCAACGUCCUCAACCUCCAAUGCAUCCCACCACAUGAUGAUGCCUGAAGAGCCUUGGUUUUUUG [G10A G39U G51A C70U] was -5.24. The value for GACCAAUCUGCCUCCAGAGCUCGAGAACAUCUUCGGAUGCAGAGGAGUCAGGCUUCGGUGGCGCGAUAGCGCCAACGUCCUCAACCUCCAAUGCAUCCCACCACAUGAUGAUGCCUGAAGAGCCUUGGUUUUUUG [C13U U14C G48U] was -3.25; that for GACCAAUCUGCCCUCUGAGCUCGAGAACAUCUUCGGAUGCAGAGGAGGCAGGGUUCGGUGGCGCGAUAGCGCCAACGUCCUCAACCUCCAAUGCAGCCCACCACAUGAUGAAGCCUGAAGAGCCUUGCUUUUUUG [A16U C53G U96G U112A G128C] was -3.45; that for GACCCAUCUGCCCUCAGAGCUCGAGAACAUCUUCGGAUGCAGAGGAGGCAGGCUUUGGUGGCGCGAUAUCGCCAACGUCCUCAACCUCCAAUGCAUCCCACCACAUGAUGAUGCCUGAAAAGCCUUGGUUUUUUC [A5C C56U G69U G120A G135C] was -1.06.

GACCAAGCUGCCCUCAGAGCUCGAGAACAUCUUCGGAUGCAGAGGAGGCAGGCUUCGGUGGCGCGAUAGCGCCAACGUCCUCAACCUCCAAUGCAUCCCACCACAUGAUGAUGCCUGAAAAGCCUUGGUUUUUUG [U7G G120A]: the “polymerase ribozyme fitness (log ratio)” value turned out to be 1.99. The value for GACCAAUCUGCCCUCAGAGCUCGAGAACAUCUUCGGAUGGAGAGGAGGCAGGCUUCGGUGGCGCGAUAGCGCCAACGCCCUCAACCUCCAAUGCAUCCCACCACAUGAUGAUGCCUGAAGAGCCUUGGUUUUUUG [C40G U78C] was -1.4; that for GAUCAAUCAGCCCUCAGAGCUCGAGAACAUCUUCGGAUGCAGAGGAGGCAGGCUUCGGUGGCGCGAUAGCGCCAACGUCCUCAACCUCCAAUGCAUCCCACCACAUGAUGAUGCCUGAAGAGCCUUGGUUUUUUG [C3U U9A] was 0.706; that for GACCAAUCUGCCCUCAGAGCUCGAGAACAUCUUCGGAUGCAGAGGAGGCAGGCUUCGGUGGCGCGAUAGCGCCAACGUCCUCAUCCUCCAAUGCAUCCCACCACAUGAUGAUGCCUGAAGAGCCUUGGUUUUAUG [A84U U133A] was -0.823. The value for GACCAAUCUGCCCUCAGAGCUCGAGAACAUCUUCGGAUGCAGAGGAGGCAGGCUUCGGUGACGCGAUAGCGCCAACGUCCUCAACCUCCAAUGCAUCCCACCACAUGAUGACGCCUGAAGAGCCUUCGUUUUUUG [G61A U112C G127C] was 0.55. For GACCAAUCUGCCCUCAGAGCUCGAGAACAUCUUCGGAUGCAGAGGAGGCAGGGUUCGGUGGCGCGAUAGCGCCAACGUCCUCAACCUCCAAUGCAUCCCACCACAUGAUGAAGCCUGAAGAGCCUUGGUUUUUUG [C53G U112A] the value was 0.666; for GACCAAUCUGCCCUCAGAGCUCGAGAACAUCUUCGGAUGCAGAGGAGGCAGGCUUCGGUGGCGCGAUAGCGCCAACGUCCUCAACCUCCAAUGCAUCCCACCACAUGAUGAUGCCUCAAGAGCCUUGGUUUUUUG [G117C], -3.16. As for GACCAAUCUGCCCUCAGAGCUCGAGAACAUCUUCGGAUGCAGAGGAGGCAGGCUUCGGUGGCGCGAUAGCGCCAACGUCCUCAACCUCCAAUACAUCCCACCACAUGAUGAUGGCUGAAGAGCCUUGGUUUUUUG [G93A C114G], the “polymerase ribozyme fitness (log ratio)” value was -2.93.

As for GACCAAUCUUCCCUCAGAGCUCGAGAACAUCUUCGGAUGCAGAGGAGGCAGGCUUCGGUGGCGCGAUAGCGCCAACGUCCUCAACCUCCAAUGUAUCCCACCACAUGAUGAUGCCUGAAGAGCCUUGGUUUUUUG [G10U C94U], the “polymerase ribozyme fitness (log ratio)” value is -0.599. For GACCAAUCUGGCCUGAGAGCUCGAGAACAUCUUCGGAUGCAGAGGACGCAGGCUUCGGUGGCGCGAUAGCGCCAACGUCCUCAACCUCCAAUGCAUCCCACCACAUGAUGAUGCCCGAAGAGCCUUGGUUUUUUG [C11G C15G G47C U116C] the value was -2.52; for GACCAAUCUGCCCUCAGAGCUCGAGAACAUCUUCGGAUGCAGAGGAGGCAGGCUUAGGUGGCGCGAUAGCGCCAACGUCCUCCACCUCCAAUGCAUCCCACCACAUGAUGAUGCCUGAAGAGCCUUGGUUUUUUG [C56A A83C], -0.237; for GACCAAUCUGCCUUCAGGGCUCGAGAACAUCUUCGGAUGCAGAGGAGGGAGGCUUCGGUGGCGCGAUAGCGCCAACUUCCUCAACCUCCAAUGCAUCCCACCACAUGAUGAUGCCUGAAGAGCCUUGGUUUUUUG [C13U A18G C49G G77U], -4.43. For GACCAAUCUGCCUUCAGAGCUCGAGAACAUCUUCGGAUGCAGAGGAGGGUGGCUUCGAUGGCGCGAUAGCGCCAACGUCCUCAACCUCCAAUGCGUCCCACCACAUGAUGAUGGCUGAAGAGCCUUGGUUUUUUG [C13U C49G A50U G58A A95G C114G] the value was -5.63; for GACCAAUCUGCCGUCAGAGCUCGAGAACAUCUUCGGAUGCAGAGGAGGAAGGCUUCGGUUGCGCGAUAGCGCCAACGUCCUCAACCUCCAAUGCAUCCCACCACAUGAUGAUGCCUGAAGAGCCUUGGUUUUUUG [C13G C49A G60U], -2.3.

With GACCAAUCUGCCCUCAGAGCUCGAGAACAUCUUCGGAUGCAGAGGAGGCGGGCUUCGGUGGCGCGAUAGCGCCAACGUCCUCAACCUCCAAUCCAUCCCACCACAUGAAGAUGCCUCAAGAGCCUUGGUUUUUUG [A50G G93C U109A G117C], the “polymerase ribozyme fitness (log ratio)” value is -6.26.

Values taken from the RNAGym collection of RNA variant scans (doi:10.1073/pnas.2313332121).
